Laboratory results reported in patent publication US10704030B2, “P450-BM3 variants with improved activity” (Codexis, Inc., priority 2015, dated 2020).
Changes are numbered by the printed parent chain. Numbers in names are those of the source.

B1: SEQ ID NO: 10: P450-BM3 parental backbone from the commercially available MCYP panel (MCYP-0343; Codexis) (protein)
chain: MTIKEMPQPKTFGELKNLPLLNTDKPVQALMKIADELGEIFKFEAPGCVTRYLSSQRLIKEACDESRFDKNLSQALKFARDFAGDGLATSWTHEINWKKAHNILLPSFSQQAMKGYHAMMVDIAVQLVQKWERLNADEHIEVSEDMTRLTLDTIGLCGFNYRFNSFYRDQPHPFIISMVRALDEVMNKLQRANPDDPAYDENKRQCQEDIKVMNDLVDKIIADRKARGEQSDDLLTQMLNGKDPETGEPLDDGNISYQIITFLIAGHETTSGLLSFALYFLVKNPHVLQKVAEEAARVLVDPVPSYKQVKQLKYVGMVLNEALRLWPTAPAFSLYAKEDTVLGGEYPLEKGDEVMVLIPQLHRDKTIWGDDVEEFRPERFENPSAIPQHAFKPFGNGQRACIGQQFALHEATLVLGMMLKHFDFEDHTNYELDIKETLTLKPEGFVVKAKSKKIPLGGIPSPSTEQSAKKVRKKAENAHNTPLLVLYGSNMGTAEGTARDLADIAMSKGFAPQVATLDSHAGNLPREGAVLIVTASYNGHPPDNAKQFVDWLDQASADEVKGVRYSVFGCGDKNWATTYQKVPAFIDETLAAKGAENIADRGEADASDDFEGTYEEWREHMWSDVAAYFNLDIENSEDNKSTLSLQFVDSAADMPLAKMHGAFSTNVVASKELQQPGSARSTRHLEIELPKEASYQEGDHLGVIPRNYEGIVNRVTARFGLDASQQIRLEAEEEKLAHLPLAKTVSVEELLQYVELQDPVTRTQLRAMAAKTVCPPHKVELEALLEKQAYKEQVLAKRLTMLELLEKYPACEMKFSEFIALLPSIRPRYYSISSSPRVDEKQASITVSVVSGEAWSGYGEYKGIASNYLAELQEGDTITCFISTPQSEFTLPKDPETPLIMVGPGTGVAPFRGFVQARKQLKEQGQSLGEAHLYFGCRSPHEDYLYQEELENAQSEGIITLHTAFSRMPNQPKTYVQHVMEQDGKKLIELLDQGAHFYICGDGSQMAPAVEATLMKSYADVHQVSEADARLWLQQLEEKGRYAKDVWAG
modifications: P450_BM3
B2: Variant 3: P450-BM3 variant of SEQ ID NO: 10: K32R; C48S; Y52F; I95P; L216Y; D232H; E349K; M491A; N574T; D722S (protein)
chain: B1 chain with K32R, C48S, Y52F, I95P, L216Y, D232H, E349K, M491A, N574T, D722S
modifications: P450_BM3
notes: C48S; Y52F; I95P; L216Y; D232H; E349K; M491A; N574T; D722S
B3: Variant 4: P450-BM3 variant of SEQ ID NO: 10: K32R; C48S; Y52F; I95P; Q111R; L216Y; D232H; P347T; E349K; M491A; N574T; E619D; D722S (protein)
chain: MTIKEMPQPKTFGELKNLPLLNTDKPVQALMRIADELGEIFKFEAPGSVTRFLSSQRLIKEACDESRFDKNLSQALKFARDFAGDGLATSWTHEPNWKKAHNILLPSFSQRAMKGYHAMMVDIAVQLVQKWERLNADEHIEVSEDMTRLTLDTIGLCGFNYRFNSFYRDQPHPFIISMVRALDEVMNKLQRANPDDPAYDENKRQCQEDIKVMNDYVDKIIADRKARGEQSHDLLTQMLNGKDPETGEPLDDGNISYQIITFLIAGHETTSGLLSFALYFLVKNPHVLQKVAEEAARVLVDPVPSYKQVKQLKYVGMVLNEALRLWPTAPAFSLYAKEDTVLGGEYTLKKGDEVMVLIPQLHRDKTIWGDDVEEFRPERFENPSAIPQHAFKPFGNGQRACIGQQFALHEATLVLGMMLKHFDFEDHTNYELDIKETLTLKPEGFVVKAKSKKIPLGGIPSPSTEQSAKKVRKKAENAHNTPLLVLYGSNAGTAEGTARDLADIAMSKGFAPQVATLDSHAGNLPREGAVLIVTASYNGHPPDNAKQFVDWLDQASADEVKGVRYSVFGCGDKTWATTYQKVPAFIDETLAAKGAENIADRGEADASDDFEGTYEEWRDHMWSDVAAYFNLDIENSEDNKSTLSLQFVDSAADMPLAKMHGAFSTNVVASKELQQPGSARSTRHLEIELPKEASYQEGDHLGVIPRNYEGIVNRVTARFGLSASQQIRLEAEEEKLAHLPLAKTVSVEELLQYVELQDPVTRTQLRAMAAKTVCPPHKVELEALLEKQAYKEQVLAKRLTMLELLEKYPACEMKFSEFIALLPSIRPRYYSISSSPRVDEKQASITVSVVSGEAWSGYGEYKGIASNYLAELQEGDTITCFISTPQSEFTLPKDPETPLIMVGPGTGVAPFRGFVQARKQLKEQGQSLGEAHLYFGCRSPHEDYLYQEELENAQSEGIITLHTAFSRMPNQPKTYVQHVMEQDGKKLIELLDQGAHFYICGDGSQMAPAVEATLMKSYADVHQVSEADARLWLQQLEEKGRYAKDVWAG
modifications: P450_BM3
notes: C48S; Y52F; I95P; Q111R; L216Y; D232H; P347T; E349K; M491A; N574T; E619D; D722S
B4: Variant 5: P450-BM3 variant of SEQ ID NO: 10: C48S; I95P; G115R; L216Y; S231R; D232H; M491A; N574T; T577A; E619D; D722S (protein)
chain: B3 chain with R32K, F52Y, R111Q, G115R, S231R, T347P, K349E, T577A
modifications: P450_BM3
notes: I95P; G115R; L216Y; S231R; D232H; M491A; N574T; T577A; E619D; D722S
B5: Variant 11: P450-BM3 variant of SEQ ID NO: 8: K95P; Q111R; G115R; I176V; L216Y; E349T; M491A; T577A; E619D; D722S (protein)
chain: MTIKEMPQPKTFGELKNLPLLNTDKPVQALMKIADELGEIFKFEAPGRVTRYLSSQRLIKEACDESRFDKNLSQALKFARDFAGDGLFTSWTHEPNWKKAHNILLPSFSQRAMKRYHAMMVDIAVQLVQKWERLNADEYIEVPEDMTRLTLDTIGLCGFNYRFNSFYRDQPHPFIVSMIRALDEVMNKLQRANPDDPAYDENKRQFQEDIKVMNDYVDKIIADRKASGEQSDDLLTQMLNGKDPETGEPLDDGNISYQIITFLIAGHETTSGLLSFALYFLVKNPHVLQKVAEEATRVLVDPVPSYKQVKQLKYVGMVLNEALRLWPTAPAFSLYAKEDTVLGGEYPLTKGDEVMVLIPQLHRDKTIWGDDVEEFRPERFENPSAIPQHAFKPFGNGQRACIGQQFALHEATLVLGMMLKHFDFEDHTNYELDIKETLTLKPEGFVVKAKSKKIPLGGIPSPSTEQSAKKVRKKAENAHNTPLLVLYGSNAGTAEGTARDLADIAMSKGFAPQVATLDSHAGNLPREGAVLIVTASYNGHPPDNAKQFVDWLDQASADEVKGVRYSVFGCGDKNWAATYQKVPAFIDETLAAKGAENIADRGEADASDDFEGTYEEWRDHMWSDVAAYFNLDIENSEDNKSTLSLQFVDSAADMPLAKMHGAFSTNVVASKELQQPGSARSTRHLEIELPKEASYQEGDHLGVIPRNYEGIVNRVTARFGLSASQQIRLEAEEEKLAHLPLAKTVSVEELLQYVELQDPVTRTQLRAMAAKTVCPPHKVELEALLEKQAYKEQVLAKRLTMLELLEKYPACEMKFSEFIALLPSIRPRYYSISSSPRVDEKQASITVSVVSGEAWSGYGEYKGIASNYLAELQEGDTITCFISTPQSEFTLPKDPETPLIMVGPGTGVAPFRGFVQARKQLKEQGQSLGEAHLYFGCRSPHEDYLYQEELENAQSEGIITLHTAFSRMPNQPKTYVQHVMEQDGKKLIELLDQGAHFYICGDGSQMAPAVEATLMKSYADVHQVSEADARLWLQQLEEKGRYAKDVWAG
modifications: P450_BM3
notes: Q111R; G115R; I176V; L216Y; E349T; M491A; T577A; E619D; D722S

Experiment: Validation of generalist properties: oxidation of loratadine by lyophilized P450-BM3 variant, UPLC-MS
Assay type: biochemical
Details: [Loratadine] = 1 mM
How it was run: (§1)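 Lyophilized lysate of E. coli-expressed P450-BM3 variant (stock standardized to 12 μM heme) was incubated 24 h at 30 °C with 1 or 2 mM substrate, 1.0 mM NADP+, 25 mM glucose, 0.5 mg/mL glucose dehydrogenase and 5% DMSO in 100 mM potassium phosphate. Acetonitrile-quenched samples were analyzed by UPLC-MS (positive ESI).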

Molecule | % Conv.
B1 | ++++ (15.01-20.00)
B2 | ++++ (15.01-20.00)
B3 | ++++ (15.01-20.00)
B4 | ++++ (15.01-20.00)
B5 | +++ (10.01-15.00)

Same assay, conditions: [Loratadine] = 1 mM; TON = [substrate]*% conversion/[P450]

Molecule | TON
B1 | ‡‡‡‡ (10000-50000)
B2 | ‡‡‡‡ (10000-50000)
B3 | ‡‡‡‡ (10000-50000)
B4 | ‡‡‡‡ (10000-50000)
B5 | ‡‡‡ (5001-10000)

Same assay, conditions: [Loratadine] = 1 mM; fold improvement over parent MCYP-P1.2-B02

Molecule | FIOPC (B02)
B5 | * (0.0-3.0)

Same assay, conditions: [Loratadine] = 1 mM; fold improvement over parent MCYP-P1.2-B12

Molecule | FIOPC (B12)
B2 | * (0.0-3.0)
B3 | * (0.0-3.0)
B4 | * (0.0-3.0)

Experiment: Validation of generalist properties: oxidation of imatinib by lyophilized P450-BM3 variant, UPLC-MS
Assay type: biochemical
Details: [Imatinib] = 1 mM
How it was run: as §1

Molecule | % Conv.
B1 | ++ (5.01-10.00)
B2 | ++++ (15.01-20.00)
B3 | ++++ (15.01-20.00)
B4 | ++++ (15.01-20.00)
B5 | ++++ (15.01-20.00)

Same assay, conditions: [Imatinib] = 1 mM; TON = [substrate]*% conversion/[P450]

Molecule | TON
B1 | ‡‡ (1001-5000)
B2 | ‡‡‡‡ (10000-50000)
B3 | ‡‡‡‡ (10000-50000)
B4 | ‡‡‡‡ (10000-50000)
B5 | ‡‡‡‡ (10000-50000)

Same assay, conditions: [Imatinib] = 1 mM; fold improvement over parent MCYP-P1.2-B02

Molecule | FIOPC (B02)
B3 | *** (5.01-10.0)
B4 | *** (5.01-10.0)
B5 | * (0.0-3.0)

Same assay, conditions: [Imatinib] = 1 mM; fold improvement over parent MCYP-P1.2-B12

Molecule | FIOPC (B12)
B2 | *** (5.01-10.0)

Experiment: Validation of generalist properties: oxidation of gefitinib by lyophilized P450-BM3 variant, UPLC-MS
Assay type: biochemical
Details: [Gefitinib] = 1 mM
How it was run: as §1

Molecule | % Conv.
B1 | ++ (5.01-10.00)
B2 | ++++ (15.01-20.00)
B3 | ++++ (15.01-20.00)
B4 | ++++ (15.01-20.00)
B5 | + (0-5.00)

Same assay, conditions: [Gefitinib] = 1 mM; TON = [substrate]*% conversion/[P450]

Molecule | TON
B1 | ‡‡ (1001-5000)
B2 | ‡‡‡‡ (10000-50000)
B3 | ‡‡‡‡ (10000-50000)
B4 | ‡‡‡‡ (10000-50000)
B5 | ‡ (0-1000)

Same assay, conditions: [Gefitinib] = 1 mM; fold improvement over parent MCYP-P1.2-B02

Molecule | FIOPC (B02)
B5 | * (0.0-3.0)

Same assay, conditions: [Gefitinib] = 1 mM; fold improvement over parent MCYP-P1.2-B12

Molecule | FIOPC (B12)
B2 | *** (5.01-10.0)
B3 | *** (5.01-10.0)
B4 | *** (5.01-10.0)

Experiment: Validation of generalist properties: oxidation of diclofenac by lyophilized P450-BM3 variant, UPLC-MS
Assay type: biochemical
Details: [Diclofenac] = 1 mM
How it was run: as §1

Molecule | % Conv.
B1 | ++++ (15.01-20.00)
B2 | ++++ (15.01-20.00)
B3 | ++++ (15.01-20.00)
B4 | ++++ (15.01-20.00)
B5 | ++++ (15.01-20.00)

Same assay, conditions: [Diclofenac] = 1 mM; TON = [substrate]*% conversion/[P450]

Molecule | TON
B1 | ‡‡‡‡ (10000-50000)
B2 | ‡‡‡‡ (10000-50000)
B3 | ‡‡‡‡ (10000-50000)
B4 | ‡‡‡‡ (10000-50000)
B5 | ‡‡‡ (5001-10000)

Same assay, conditions: [Diclofenac] = 1 mM; fold improvement over parent MCYP-P1.2-B02

Molecule | FIOPC (B02)
B5 | * (0.0-3.0)

Same assay, conditions: [Diclofenac] = 1 mM; fold improvement over parent MCYP-P1.2-B12

Molecule | FIOPC (B12)
B2 | * (0.0-3.0)
B3 | * (0.0-3.0)
B4 | * (0.0-3.0)
